The text below walks through data of the nanobody polyreactivity screen of Harvey et al. (2022).

This data set is described as follows: yeast display, Sf9 membrane polyspecificity reagent, FACS + sequencing; frameworks hold sequencing errors. A digest of the protocol: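 Using colony PCR, genes from sorted yeast display clones were amplified, then sequenced on MiSeq at 2 × 250 and filtered by CDR length. The clones had been stained with 10% biotinylated, detergent-solubilized Sf9 membrane reagent for 1 hour at 4 °C and sorted by FACS into low and high (top ~1%) gates on anti-HA and streptavidin fluorescence. Polyreactivity labels come from the gate of origin.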
For the sequence “QDQLVESCGGLVQAGGSLRLSCASSGSTIYIYAMGWSRQAPVKERELVAAITWSGGSTYYADSVKGRFTISRDNAKNTVYLQMNSLNREDTAVYYFAAYLRYYRKEVGYSSMNYWGQGTQVTVSS”, the “polyreactivity (PSR sort gate)” value is reported as “high polyreactivity”. As to “QDQLVESGAGLVQAGGSLRLSCAASGITFSANAMGWYRQAPGKERELVATITWSGGSTYYADSVKGRFTISRDNAKNTVYLQMNSLKPEDTAVYFCNARSYDEYPYYSYNYWGQGTQVTVSS”, the “polyreactivity (PSR sort gate)” value is “low polyreactivity”. Consider “QDQLVESGAGLVQAGGSLRLSCAASGRIFPGYAMGWYRQAPGKERELVAGITWRTARTYYADSVKGRFTISRDNAKNTVYLQMNSLKPEDTAVYYCAAKYARYGRHVIFDYWGQGTQVTVSS”, for which the “polyreactivity (PSR sort gate)” value was “high polyreactivity”.

As for “QDQLVESGGALVQAGGSLRLSCAASGSIFDYNAMGWYRQAPRKDRELVAAISVNGGNTYYADSVKGRFTISRDNAKNTVYLQMNRLKPEDTGVSYCAADSYGGSNYDFWGQGTQVTVSS”, the “polyreactivity (PSR sort gate)” value was “low polyreactivity”.

For the sequence “QDQLVESGGCLVQAGGSLRLSCAASRFTFSPYTMGWYRQAPGKERELVATIRYDGTSTYYADSVKGRFTISRDNAKNTVYLQMNSLKPEDTAVYYCNADPGYYDYDYWGEGTQVTVSS”, the “polyreactivity (PSR sort gate)” value was “low polyreactivity”. Regarding “QDQLVESGGGIVQAGGSLRLICAASGRIFLRNDMGWYRQAPGKQRELVAGISSDGSTYYADSVKGRFTISRDNAKNTVYLQMNSLKPEDTAVYYCADERWGNPTDYQFWRQYDYWGQGTQVTVSS”, the “polyreactivity (PSR sort gate)” value is given as “low polyreactivity”. The same measure for “QDQLVESGGGIVQAGGSLRLSCAASGRTFTAYAMGWYRQAPGKERELVAAISSSGGSTYYADSEKGRFTISRDNAKNTVYLQMNSLKPDDTAVYYCAALGGYRYGYDYWGQGTQVTVSS”: “high polyreactivity”; for “QDQLVESGGGLDQAGGSLRLSCAASGGTFKVNAMGWYRQAPGKEREFVAAISSGGSTYYADSVKGRFTISRDNAKNTVYLQINSLKPEDTAVYYFAASGAYDEAYGEAFYYWGQGTQVIVSS”: “low polyreactivity”; for “QDQLVESGGGLLQAGGSLRLSCAASGFTFSIYAMGWYRQAPGKERELVAAISSSSSTNYADSVKVRFTISRDNAKNTVYLQMNSLKPEDTEVYYCNADNVGNTFTWYDYWGQGTQVTVSS”: “low polyreactivity”.

Take “QDQLVESGGGLLQAGGSLRLSCAASGIIFYPYAMGWYRQAPGKERELVAAITTRGRTYYADSVKGRFTISRDNAKNTVYLQLNSLKPEDTAVYYCNARRYFSRDSSGYNYWGQGTQVTVSS”: the “polyreactivity (PSR sort gate)” value is given as “high polyreactivity”. The value for “QDQLVESGGGLRQAGGSLRLSCAASGPTFFVYAMGWYTQAPGKERELVAAISWNGGSTFYADSVKGRFTISRDNAKNTVYIQMNSLNPEDTAVYYCAAVESRGWGGYGYWGQGTQVTVSS” was “high polyreactivity”; that for “QDQLVESGGGLVHAGCSLRLSCAASGRTFYGNAMGWYRQAPGKERELVAGITRGGSTYYADSVKGRFTISRDNAKNNVYLQMNSLKPEDTAVYYCAATRYYSWGSRGGYWGQGTQVSVSS” was “high polyreactivity”. The value for “QDQLVESGGGLVHAGGSLRLSCAASGSTFQYYVMGWYRQAPGKERELVAAITWSGGSTYYADSVKGRFTISRDNAKNTVYLQMNSLKPEDTAVYYCKAASGPDFEYEYWGEGTQVTVSS” was “low polyreactivity”; that for “QDQLVESGGGLVHAGGSLRLSCVPPDSSSLSMLWDGIDRRLGKKGSWLPELTSRGVGTYYADSVKGRFTISRDNAKNPVYLQMNSLKPEDTAVYYCNARYEVFYRYDYWGQGTQVTVSS” was “low polyreactivity”; that for “QDQLVESGGGLVLSGGRLRLSCAASGSNFSFYAMGWYRQAPGKERELVAGIRWRGGTSTFYADSVKWRFTISRDNAKNTVYLQMNSLKPEDTAVYYCAAKRRTGGNGYWGQGTQVTVSS” was “high polyreactivity”. With “QDQLVESGGGLVQAGASLRLSCAASGFIFSYYAMGWYRQAPGKERELVAAITWSGSSTYYADSVKGRFTISRDNAKNTVYLQMNSLKPEDTAVYYCPASSGGFRHYYYTYNYWGQGTQVTVSS”, the “polyreactivity (PSR sort gate)” value was “high polyreactivity”. With “QDQLVESGGGLVQAGCSLRLSCAASGLIFGWYAMGWYRQAPGKERELVASISRSGGSTYYADSVKGRFTISRDNAKNTVYLQMNSLITEDTAVYYCAALNYVFRLTYGYDYWGQGTQVTVSS”, the “polyreactivity (PSR sort gate)” value is “high polyreactivity”.

Consider “QDQLVESGGGLVQAGCSLRLSCAASGRTFTYYAMGWYRQAPGKERELVAALSKRGGTTYYADSVKVRFSMSRDNAKNTDYLKMNSLKAVDTAVYYCATEGNLRTAGYAYDHYYWGQGTQVTVSS”, for which the “polyreactivity (PSR sort gate)” value is recorded as “high polyreactivity”.

For “QDQLVESGGGLVQAGCSLRLTCAASGSTFSYYAMGWYRQAPGKERELVADISWSGGSTYYADSVKGRFTISRDNAKNTVYLQMNSLKAAHTAVYYCAARGGSVLRYGKYYYWGQGTQVTVSS”, the “polyreactivity (PSR sort gate)” value is “low polyreactivity”. On to “QDQLVESGGGLVQAGDSLRLSCAASGIILLSYAMGWYRQAPGKERELVAAITSGGGTNYADSVKGRFTISRDNAKNTVYLQMNSLKPEDTAVYYCAVGAYAGLYYYWGQGTQVTVSS”, for which the “polyreactivity (PSR sort gate)” value is “low polyreactivity”. With “QDQLVESGGGLVQAGGIHRLICDSSGFIFWDNAMGCSRQAPGKEREFVAAISQRCTRTYYADSVKGRFTISRDNAKKTVFFPLNSLKPEDTGVYYCNRGGWRQFDSWGQGTQVTVSS”, the “polyreactivity (PSR sort gate)” value was “high polyreactivity”.

With “QDQLVESGGGLVQAGGILRLSCAASGRTFLPNAMGWYRQSPGKEREFVASINGDGTTYYADSVKGRFTISRDNAKNTVYLQMNSLKPEDTAVYYCAKDRDFSSPPTESGFDFWGQGTQVTVSS”, the “polyreactivity (PSR sort gate)” value was “low polyreactivity”. Take “QDQLVESGGGLVQAGGRLRLSCAASGRTFYWNAMGWNRQAPGKEREMVAAITRGGSTTYADSVKGRFTISRDNAKNTVYLQMNSLKPEDTAVYYCNKVYSLWPGYRYDYWGQGTQVTVSS”: the “polyreactivity (PSR sort gate)” value was “high polyreactivity”. On to “QDQLVESGGGLVQAGGRLRLSCAASGSIFLKYSMGWYRQAPGKVRELVAVISQSGGRTYYADSVKGRFTISRDNAKNTVYLQMNILKPEETAVYYCNVDISWLRRKFDYWGQGTQVTVSS”, for which the “polyreactivity (PSR sort gate)” value is listed as “low polyreactivity”.

“QDQLVESGGGLVQAGGSLGLSCAASGLTFSYYAMAWYRQAPGKERELVAAIDYSGGTTYADSVKGRFTISRDNAKNTVYLQMNSLKPEDTAVYYCADAPDGWFASGDEYWGQGTQVTVSS”: the “polyreactivity (PSR sort gate)” value is “high polyreactivity”. For the sequence “QDQLVESGGGLVQAGGSLPLSCAASGFTYSSYAMGWYRHAPGKERELVATISRSGSTTYYADSVKGRFTISRDNAKNTVYFQMNSLKPEDTAVYYCAKAYYPGGYWGQGTQVTVSS”, the “polyreactivity (PSR sort gate)” value is “high polyreactivity”. As to “QDQLVESGGGLVQAGGSLRISCAASGFTFDENAMGWYRQAPGINYSGASTYYADSVKGRFTISRDNAKNTVYLQMYSLKPEDTAVYYCAAEVVALMNYWGQGSQVTVSS”, the “polyreactivity (PSR sort gate)” value is “low polyreactivity”.

Regarding “QDQLVESGGGLVQAGGSLRISCDASGTTFQTYVMGWYRQAPGKERELVAAISSGGSTNYADSVKGRFTISRDNAKNTVYLQMNSLKPEDTAVYYCAKRWPYFRRGKDGYWGQGTQVTVSS”, the “polyreactivity (PSR sort gate)” value is “low polyreactivity”. In the case of “QDQLVESGGGLVQAGGSLRLICAASGGIFLVYTMGWYRQAPGKERELVAAITSGGSTKYADSVKGRFTISRDNAKNTVYLQMNSLKPEDTAVYYCAAYRRSWRYPSVRYYKYDYWGQGTQVTVSS”, the “polyreactivity (PSR sort gate)” value was “high polyreactivity”. Turning to “QDQLVESGGGLVQAGGSLRLICAASGNTLGYYAMVCYRQATGKERELVATISDDGTTYYADSVKGLFTISRDNAKNSVYLQMNSLKPEDTAVYYCATDGSAQYSMDYWGQGTQVTVSS”, the “polyreactivity (PSR sort gate)” value is “low polyreactivity”. Turning to “QDQLVESGGGLVQAGGSLRLICAASGSILSGYAMGWYRQAPGKERELVAAITSGGDTNYADSVKGRFTISRDNAKNTVYLQMNSLKPEDTAVYYCNRRGDFRIAYYDPMDYWGQGTQVTVSS”, the “polyreactivity (PSR sort gate)” value is “low polyreactivity”. On to “QDQLVESGGGLVQAGGSLRLICAASGSTFDSYAMGWYRQAPGKERELVAAITRSVGSTYYADSVKGRFTISRDNAKYTVYLLMKSLKPEDTAVYYCAARGEWAIYVEFDYWGQGTQVTVSS”, for which the “polyreactivity (PSR sort gate)” value is reported as “low polyreactivity”. The value for “QDQLVESGGGLVQAGGSLRLICAASGSTFEYNAMGWSRHAPGKERELVASSTNYADSVKGRFTISRDNAKNTVYLQMNSLIPEDTAVYYCAREHGVNRNHDYWGQGTQVTVSS” was “low polyreactivity”; that for “QDQLVESGGGLVQAGGSLRLICASSGSNFESNTMGWYRQAPGKERELLAAINWSGGRTYYADSVKGRFSISRDNAKNTVYLQINSLKPEDTAVYYCATGTYSDYKLGQQLWGRYNYWGQGTQVSVSS” was “high polyreactivity”; that for “QDQLVESGGGLVQAGGSLRLISAASGSTFRKYAMGWYRQAPGKEREFVAASTKRGGSTYYADSVKGRFTISRDNAKNTVYLLLNSLKPEDTAVYYCAAYKQDIGYYWGQGTQVTVSS” was “high polyreactivity”. The value for “QDQLVESGGGLVQAGGSLRLSCAASGATYRNNAMGWYRQAPGKERELVAAISRGGGSTYYADSVNGRFTISRDNAKNNVYLQMNSLKPEDTAVYYCARRPTGIYDYWGQGTQVTVSS” was “high polyreactivity”; that for “QDQLVESGGGLVQAGGSLRLSCAASGFIFDTYAMGWYRQAPGKERELVAVISSGGSTYYADSVKGRFTISRDNAKNTVYLQMNSLKPEDTAVYYCAADSGYLGIYGDEYSWGQGTQVTVSS” was “low polyreactivity”; that for “QDQLVESGGGLVQAGGSLRLSCAASGFIFWRNTMGWYRQAPGKERELVAVITRGGSTYYADSVKGRFTISRDNAKNTVYLQMNSLKPEDTAVYYCAALNDYYKTFSGYDYWGQGTQVTVSS” was “low polyreactivity”. The value for “QDQLVESGGGLVQAGGSLRLSCAASGFTFAGYAMGWYRQAPGKERELVAAITYSGGRTYYADSVKGRFTISRDNAKNTVYLQMNSLKPEDTAVYYCAARNYRYPGRYVYWGQGTQVTVSS” was “high polyreactivity”; that for “QDQLVESGGGLVQAGGSLRLSCAASGFTFNIYAMGWYRQAPGKERELVAAISWSGGRTNYADSVKGRFTISRDNAKKTVYLQMNSLKPEATAVYYCAVRYKSWYGFNYWGQGTQVTVSS” was “high polyreactivity”; that for “QDQLVESGGGLVQAGGSLRLSCAASGFTFNWKDMGWYRQAPGKERELVAAISGGASTYYADSVKGRFTISRDNAKNTVYLQMNSLKPEDTAVYYCAADLDEWGYLFDYWGQGTQVTVSS” was “low polyreactivity”.
